According to article PMC2859543:

B1: His6-tagged Tup11 (natural protein)
chain: MASVEDATKVQEMLDALKAEYNALAHHSFASKARGNDYESSMIQSQIQEIEAFRKTVDDMYEKQKSIRETYEKDINKLKRELEELGVEANTASYRNRGERSELAASNNQVTHIDQEHPSQTKSTSQPPSNHLPAFQQIPPIHQSAYPQNNVAEVLMPPIPPSVEASSGQNFNQGIASQNPAISTSNLPSTTPLYIPPVNYGANQVSQQPNPQLPGVSNYYNPSATSKPAVNVQPPRIPTKATPSAEPSMTASANAGSISQAGPDGEYQGREQIAPVSDTEAARKTTSQSWYVTYNPACKRVFNINLVHTLEHPSVVCCVKFSNNGKYLATGCNQAANVFDVQTGKKLFTLHEESPDPSRDLYVRTIAFSPDGKYLVTGTEDRQIKLWDLSTQKVRYVFSGHEQDIYSLDFSHNGRFIVSGSGDRTARLWDVETGQCILKLEIENGVTAIAISPNDQFIAVGSLDQIIRVWSVSGTLVERLEGHKESVYSIAFSPDSSILLSGSLDKTIKVWELQATRSVGLSAIKPEGICKATYTGHTDFVLSVAVSPDSRWGLSGSKDRSMQFWDLQTGQSYLTCQGHKNSVISVCFSPDGRQFASGSGDLRARIWSIDPASP
B2: His6-tagged Tup12 (natural protein)
chain: MATSNVSSRVNELLEAVKKEFEDICQKTKTVEAQKDDFEYKAMISAQINEMALMKQTVMDLEMQQSKVKDRYEEEITSLKAQLEARRKEIASGVVPQSSKTKHGRNSVSFGKYGNAGPFNSDNSSKPLILNNGSSGGTPKNLRSPAIDSDGTVLAPIQTSNVDLGSQYYSSPHVRPAVGATMAGSAMRTFPSNLPLGHPPPPSDSANSSVTPIAAPLVVNGKVSGNPPYPAEIIPTSNVPNREEKDWTVTSNVPNKEPPISVQLLHTLEHTSVICYVRFSADGKFLATGCNRAAMVFNVETGKLITLLQEESSKREGDLYVRSVAFSPDGKYLATGVEDQQIRIWDIAQKRVYRLLTGHEQEIYSLDFSKDGKTLVSGSGDRTVCLWDVEAGEQKLILHTDDGVTTVMFSPDGQFIAAGSLDKVIRIWTSSGTLVEQLHGHEESVYSVAFSPDGKYLVSGSLDNTIKLWELQCVSNVAPSMYKEGGICKQTFTGHKDFILSVTVSPDGKWIISGSKDRTIQFWSPDSPHSQLTLQGHNNSVISVAVSPNGHCFATGSGDLRARIWSYEDL

Molecular target: GST-cLkh1^ΔLA (LAMMER motif-deleted Lkh1 catalytic domain) (S. pombe)
Test: pull-down

| Binder | percent of the substrate-binding activity of GST-cLkh1 and GST-cLkh1^K391R |
| --- | --- |
| B1 | 30% |
| B2 | 30% |
